# In PMC4787811 (Nucleic Acids Research, 2015):
# B1: E1 helicase domain (residues 299-605) (domain or fragment)
# chain: QTTLNESLQTEKFDFGTMVQWAYDHKYAEESKIAYEYALAAGSDSNARAFLATNSQAKHVKDCATMVRHYLRAETQALSMPAYIKARCKLATGEGSWKSILTFFNYQNIELITFINALKLWLKGIPKKNCLAFIGPPNTGKSMLCNSLIHFLGGSVLSFANHKSHFWLASLADTRAALVDDATHACWRYFDTYLRNALDGYPVSIDRKHKAAVQIKAPPLLVTSNIDVQAEDRYLYLHSRVQTFRFEQPCTDESGEQPFNITDADWKSFFVRLWGRLDLIDEEEDSEEDGDSMRTFTCSARNTNAVD
# B2: RFJ 10 bp fork, 3' T20 and 5' C10 (dsDNA)
# DNA 1: CCTCAGCGCGTTTTTTTTTTTTTTTTTTTT
# DNA 2: CCCCCCCCCCCGCGCTGAGG
# B3: full length BPV-1 E1 helicase (enzyme)
# chain: MANDKGSNWDSGLGCSYLLTEAECESDKENEEPGAGVELSVESDRYDSQDEDFVDNASVFQGNHLEVFQALEKKAGEEQILNLKRKVLGSSQNSSGSEASETPVKRRKSGAKRRLFAENEANRVLTPLQVQGEGEGRQELNEEQAISHLHLQLVKSKNATVFKLGLFKSLFLCSFHDITRLFKNDKTTNQQWVLAVFGLAEVFFEASFELLKKQCSFLQMQKRSHEGGTCAVYLICFNTAKSRETVRNLMANTLNVREECLMLQPAKIRGLSAALFWFKSSLSPATLKHGALPEWIRAQTTLNESLQTEKFDFGTMVQWAYDHKYAEESKIAYEYALAAGSDSNARAFLATNSQAKHVKDCATMVRHYLRAETQALSMPAYIKARCKLATGEGSWKSILTFFNYQNIELITFINALKLWLKGIPKKNCLAFIGPPNTGKSMLCNSLIHFLGGSVLSFANHKSHFWLASLADTRAALVDDATHACWRYFDTYLRNALDGYPVSIDRKHKAAVQIKAPPLLVTSNIDVQAEDRYLYLHSRVQTFRFEQPCTDESGEQPFNITDADWKSFFVRLWGRLDLIDEEEDSEEDGDSMRTFTCSARNTNAVD
# B4: RFJ 10 bp fork, 5' dsDNA biotin and 5' ssDNA digoxigenin (dsDNA)
# DNA 1: B2 DNA 1
# DNA 2: CCCCCCCCCCCGCGCTGAGG
# B5: 30 bp fork, 3' T20 and 5' C8, top strand labelled (dsDNA)
# DNA 1: GGCTTGTATTTCACACCGCACCTCAGCGCGTTTTTTTTTTTTTTTTTTTT
# DNA 2: CCCCCCCCCGCGCTGAGGTGCGGTGTGAAATACAAGCC
# B6: 30 bp fork, 3' T20 and 5' C8, bottom strand labelled (dsDNA)
# DNA 1: B5 DNA 1
# DNA 2: CCCCCCCCCGCGCTGAGGTGCGGTGTGAAATACAAG
# B7: RFJ 10 bp fork, 5' dsDNA biotin (dsDNA)
# DNA 1: B2 DNA 1
# DNA 2: CCCCCCCCCCCGCGCTGAGG
# Key:
# [1] = target: the molecule itself; assay: negative-stain EM, single particle 3D reconstruction
# [2] = target: T1, E1FL (full-length E1) (bovine papillomavirus (BPV-1), UniProt P03116 1-605); assay: gel filtration (SEC); no nucleotide cofactor; 50 uM E1, E1:DNA 6:1; conditions: protein: recombinant; tags: GST fusion, tag cleaved with thrombin and removed; chain copies: 6; fork: 10 bp duplex, 3' T20 and 5' C10 arms
# [3] = target: T1, E1FL (full-length E1); assay: gel filtration (SEC) and negative stain EM; no nucleotide cofactor; 50 uM E1, E1:DNA 6:1; conditions: protein: recombinant; tags: GST fusion, tag cleaved with thrombin and removed; chain copies: 6; single strand
# [4] = target: T1, E1FL (full-length E1); assay: gel filtration (SEC) and negative stain EM (20 A); streptavidin (MTS) and anti-digoxigenin Fab bound to labels; conditions: protein: recombinant; tags: GST fusion, tag cleaved with thrombin and removed; chain copies: 6; label: 5'-biotin on top strand; 5'-digoxigenin on bottom strand; fork: 10 bp duplex, 3' T20 and 5' C10 arms
# [5] = target: T1, E1FL (full-length E1); assay: hydroxyl radical footprinting; conditions: protein: recombinant; tags: GST fusion, tag cleaved with thrombin and removed; chain copies: 6; label: 5'-32P on top strand; fork: 30 bp duplex, 3' T20 and 5' C8 arms
# [6] = target: T1, E1FL (full-length E1); assay: hydroxyl radical footprinting; 10-fold excess unlabelled T18 competitor; similar protection to top strand; conditions: protein: recombinant; tags: GST fusion, tag cleaved with thrombin and removed; chain copies: 6; label: 3'-32P on bottom strand; fork: 3' T20 and 5' C8 arms; 29 bp as printed before labelling
# [7] = target: T1, E1FL (full-length E1); assay: gel filtration (SEC) and negative stain EM (20 A); streptavidin (MTS) bound to biotin; conditions: protein: recombinant; tags: GST fusion, tag cleaved with thrombin and removed; chain copies: 6; label: 5'-biotin on top strand (dsDNA end); fork: 10 bp duplex, 3' T20 and 5' C10 arms
binder,measurement,setting,value
B1,binding result,[1],binds
B2,binding result,[2],binds
B3,stoichiometry N,[1],6
TTTTTTTTTTTTTTTTTTTTTTTTTTTTTT (ssDNA) [ssDNA T30],binding result,[3],binds
B4,binding result,[4],binds
B5,binding result,[5],binds
B6,binding result,[6],binds
B7,binding result,[7],binds
